The values below come from the supplement of paper PMC7125110.

To fix the notation:
B1: glmS ribozyme (parent)
chain: AUAAAAGCGCCAGAACUACAGAAAUGUAGUUGACGAGGAGGAGGUUUAUCGAAUUUUCGGCGGAUGCCUCCAAA

Conditions in all cases: with glucosamine-6-phosphate
The variants in series [1] derive from B1. Briefly: self-cleavage kobs at 40 uM GlcN6P; higher = faster cleavage; RNA array. In outline:
(§1)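 Weighted Michaelis–Menten fits across concentrations supplied kcat and KM, based on kobs from one- or two-exponential decay fits to normalised per-tile medians. The data came from barcoded ribozyme variants transcribed in situ by E. coli RNA polymerase on sequenced MiSeq chips and tracked at 37 °C by a hybridised Cy3 probe. Glucosamine-6-phosphate (40 μM to 10 mM) in HEPES/KCl/Mg(OAc)2 buffer was flowed in.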

The variants in series [2] derive from B1. Briefly: self-cleavage kobs at 160 uM GlcN6P; higher = faster cleavage; RNA array. In outline:
as §1

Variants of B1 are the subject of series [3]. Briefly: self-cleavage kobs at 2500 uM GlcN6P; higher = faster cleavage; RNA array. In short, it runs like this: as §1
Series [4] covers variants of B1. The series can be described thus: self-cleavage kobs at 640 uM GlcN6P; higher = faster cleavage; RNA array. In outline: as §1
Variants of B1 are the subject of series [5]. Briefly: self-cleavage kobs at 10000 uM GlcN6P; higher = faster cleavage; RNA array. In short, it runs like this:
as §1

± gives the standard error. Fewer inactive variants are shown than the library holds.

In the case of AUAAAGGCGCCAGAACUACAGAAAUGUAGUGGACGAGGAGGCGGUUUGUCGAAUUUUCGGCGGAUGGCUCCAAA [A6G U31G A42C A48G C67G], the “self-cleavage kobs at 40 uM GlcN6P” value in series [1] is less than 1e-05 s⁻¹.

AUAAAUGCGCCAGAACUACAGAAAUGUAGUUGACGAGGAGGGCGUUUAUCGAAUUUUCGGCGGAUGCCUCCAAA [A6U A42G G43C]: the “self-cleavage kobs at 40 uM GlcN6P” value in series [1] is less than 1e-05 s⁻¹.

Consider AUAAAAGCGCCUGAACUACAGAAAUGUAGUUCACGAGGAGGAGGUUUAUCGAAUUUUCGGCGGAUGCCUCCAAA [A12U G32C], for which, in series [1], the “self-cleavage kobs at 40 uM GlcN6P” value was less than 1e-05 s⁻¹. The “self-cleavage kobs at 160 uM GlcN6P” value in series [2] is less than 1e-05 s⁻¹. For the same variant, in series [3], the “self-cleavage kobs at 2500 uM GlcN6P” value is less than 1e-05 s⁻¹.

AUAAAAGCGCCAGAACUACAGAAAUGUAGUUGAAGAGGAGGAGGUUUAUCGAAUUUGCGGCGCAUGCCUCUAAA [C34A U57G G63C C71U]: the “self-cleavage kobs at 40 uM GlcN6P” value in series [1] was less than 1e-05 s⁻¹. In addition, the “self-cleavage kobs at 640 uM GlcN6P” value in series [4] is less than 1e-05 s⁻¹. Also, the “self-cleavage kobs at 2500 uM GlcN6P” value in series [3] was less than 1e-05 s⁻¹.

As for AUAAAAGCGCCCGAACUACAGAAAUGUAGGUGACGAGGAGGAGGUUUAUCGAAGUUUCGGCGGAUGCCUCCAAA [A12C U30G U54G], in series [1], the “self-cleavage kobs at 40 uM GlcN6P” value was found to be 3.64e-05 ± 1.3e-05 s⁻¹. For the same variant, in series [3], the “self-cleavage kobs at 2500 uM GlcN6P” value was determined as 0.000897 ± 0.00025 s⁻¹. For the same variant, the “self-cleavage kobs at 10000 uM GlcN6P” value in series [5] was determined as 0.00183 ± 0.00039 s⁻¹.

For the variant AUAAAGGCGCCAGAACUACAGAAAUGUAGUUGACCAGGAGGAGGUUUAUCGAAUUUUCGGCGGAUGCCUCCAAA [A6G G35C], the “self-cleavage kobs at 40 uM GlcN6P” value in series [1] was less than 1e-05 s⁻¹. Further, the “self-cleavage kobs at 160 uM GlcN6P” value in series [2] is less than 1e-05 s⁻¹. In addition, the “self-cleavage kobs at 640 uM GlcN6P” value in series [4] is less than 1e-05 s⁻¹. Also, the “self-cleavage kobs at 2500 uM GlcN6P” value in series [3] was less than 1e-05 s⁻¹. Besides, the “self-cleavage kobs at 10000 uM GlcN6P” value in series [5] is less than 1e-05 s⁻¹.

For the variant AUAAAAGCGCCAGAGCUACAGAAAUGUAGUUGUCGAGGAGGAGGUUUAUCGAAUUUUCGGCGGAUGCCUCUAAA [A15G A33U C71U], the “self-cleavage kobs at 40 uM GlcN6P” value in series [1] is less than 1e-05 s⁻¹. Further, the “self-cleavage kobs at 10000 uM GlcN6P” value in series [5] came to 5.87e-05 ± 1.3e-05 s⁻¹.

With AUAAAAGCGCCAGAACUACAGAAAUGUAGUUGACGAGGAGGAGGUUUAUCGAAUUUUCGCCUGAUGCCUCCAAA [G60C G62U], the “self-cleavage kobs at 40 uM GlcN6P” value in series [1] was less than 1e-05 s⁻¹. The “self-cleavage kobs at 160 uM GlcN6P” value in series [2] was less than 1e-05 s⁻¹. For the same variant, the “self-cleavage kobs at 2500 uM GlcN6P” value in series [3] is less than 1e-05 s⁻¹. The “self-cleavage kobs at 10000 uM GlcN6P” value in series [5] was less than 1e-05 s⁻¹.

Consider AUAAAAGCGCCAGAAGUACAGAAAUGUAGGUGACGAGGAGGAGGUUUAUGGAAUUUUCGGCGGAUGCCUCCAAA [C16G U30G C50G], for which the “self-cleavage kobs at 40 uM GlcN6P” value in series [1] came out at 0.00013 ± 4.8e-05 s⁻¹. In series [4], the “self-cleavage kobs at 640 uM GlcN6P” value was 6.59e-05 ± 3.2e-05 s⁻¹. In addition, in series [3], the “self-cleavage kobs at 2500 uM GlcN6P” value amounted to 0.000324 ± 5e-05 s⁻¹. The “self-cleavage kobs at 10000 uM GlcN6P” value in series [5] worked out at 7.3e-05 ± 1.9e-05 s⁻¹.

Take AUAAAAGCGCCAGAACUACAGAAAUGUAGUUCACGAGGACGAGGUUUAUCGAAUUUUCGGCGGAUGCCUCCAAA [G32C G40C]: the “self-cleavage kobs at 40 uM GlcN6P” value in series [1] is less than 1e-05 s⁻¹. The “self-cleavage kobs at 160 uM GlcN6P” value in series [2] was less than 1e-05 s⁻¹. Moreover, the “self-cleavage kobs at 640 uM GlcN6P” value in series [4] is less than 1e-05 s⁻¹.

On to AUAAAAGCGACAGGACUACAGAAAUGUAGUUGACGAGGAGGAGCUUUAUCGAAUUUUCGGCGGAUGCCUCCAAA [C10A A14G G44C], for which, in series [1], the “self-cleavage kobs at 40 uM GlcN6P” value is less than 1e-05 s⁻¹. For the same variant, the “self-cleavage kobs at 2500 uM GlcN6P” value in series [3] was less than 1e-05 s⁻¹. Further, in series [5], the “self-cleavage kobs at 10000 uM GlcN6P” value was less than 1e-05 s⁻¹.

As to AUAAAAACGCCCGAACUACAGAAAUGUAGGUGACGAGGAGGAGGUUUAUCGAAUUUUCGGCGGAUGCCUCCAAA [G7A A12C U30G], the “self-cleavage kobs at 40 uM GlcN6P” value in series [1] was less than 1e-05 s⁻¹.

With AUAAAAGCGCCAGAACUACAGAAAUGUAGUUGACGAGUAGGAGUUUUAUCGAAUUUUCGGCGGAUGCCGGCAAA [G38U G44U U69G C70G], the “self-cleavage kobs at 40 uM GlcN6P” value in series [1] was less than 1e-05 s⁻¹.

For the variant CAUAAAAGCGCCAGACUACAGAAAUGUAGUUGACGAGGAGGAGGUUUAUCGAAUUUUCGGCGGAUGCCUCCAAA [A1C U2A A3U G7A C8G G9C C10G A12C G13A A14G], the “self-cleavage kobs at 40 uM GlcN6P” value in series [1] was 6.43e-05 ± 1.4e-05 s⁻¹. The “self-cleavage kobs at 10000 uM GlcN6P” value in series [5] amounted to 0.00344 ± 0.00044 s⁻¹.

Take AUAAAAACGCCAGAACUACAGAAAUGUAAUUGACGAGGAGGAGGUUUAUCGAAUCUUCGUCGGAUGCCUCCAAA [G7A G29A U55C G60U]: the “self-cleavage kobs at 40 uM GlcN6P” value in series [1] was less than 1e-05 s⁻¹. Further, the “self-cleavage kobs at 2500 uM GlcN6P” value in series [3] is less than 1e-05 s⁻¹.
